This passage reports binding result and Kd results from PMC5575007, “Intermolecular base stacking mediates RNA-RNA interaction in a crystal structure of the RNA chaperone Hfq”.

In data set [1] the target is T1, Hfq72 (Escherichia coli, UniProt P0A6X3 1-72). The data set is described as follows: X-ray crystallography; 2.5 A; distal face; (Hfq6:A18)2 dimer by N-site base stacking; pH 4.2; ITC/FA: 0.25 M NaCl, 20 mM Hepes/NaOH pH 8.0, 5 mM MgCl2, 2% glycerol, 25 C (FA plus 1 g/l BSA); EMSA: 0.25 M NaCl, 50 mM Tris pH 7.5, 10% glycerol, 25 C, 20 nM RNA, 2-200 nM Hfq. Conditions: protein: recombinant; tags: 6xHis-SUMO tag cleaved (SenP2); chain copies: 6.

The target of data set [2] is T2, Hfq102 (Escherichia coli, UniProt P0A6X3 1-102). The data set is described as follows: AUC; s = 4.5S alone; with OxyS segment ternary s = 5.9S; ITC/FA: 0.25 M NaCl, 20 mM Hepes/NaOH pH 8.0, 5 mM MgCl2, 2% glycerol, 25 C (FA plus 1 g/l BSA); EMSA: 0.25 M NaCl, 50 mM Tris pH 7.5, 10% glycerol, 25 C, 20 nM RNA, 2-200 nM Hfq. Conditions: protein: recombinant; tags: 6xHis-SUMO tag cleaved (SenP2); chain copies: 6; label: 3' Cy3 or Cy5. In general terms: In EMSA bound probe runs differently from free probe, usually more slowly.

In data set [3] the target is T1, Hfq72. Briefly: fluorescence anisotropy; first of two events; 1 g/l BSA; ITC/FA: 0.25 M NaCl, 20 mM Hepes/NaOH pH 8.0, 5 mM MgCl2, 2% glycerol, 25 C (FA plus 1 g/l BSA); EMSA: 0.25 M NaCl, 50 mM Tris pH 7.5, 10% glycerol, 25 C, 20 nM RNA, 2-200 nM Hfq. Conditions: protein: recombinant; tags: 6xHis-SUMO tag cleaved (SenP2); chain copies: 6; label: 3'-ATTO488. (In general: Fluorescence polarisation rises when a labelled molecule tumbles more slowly, as on binding a larger partner.)

Data set [4] deals with T3, Hfq102R16A,R17A (Escherichia coli, UniProt P0A6X3 1-102, R16A;R17A). Briefly: EMSA; significant supershift; ITC/FA: 0.25 M NaCl, 20 mM Hepes/NaOH pH 8.0, 5 mM MgCl2, 2% glycerol, 25 C (FA plus 1 g/l BSA); EMSA: 0.25 M NaCl, 50 mM Tris pH 7.5, 10% glycerol, 25 C, 20 nM RNA, 2-200 nM Hfq. Conditions: protein: recombinant; tags: 6xHis-SUMO tag cleaved (SenP2); chain copies: 6; label: 5'-32P.

The target in data set [5] is T3, Hfq102R16A,R17A. Briefly: EMSA; two shifted bands; ITC/FA: 0.25 M NaCl, 20 mM Hepes/NaOH pH 8.0, 5 mM MgCl2, 2% glycerol, 25 C (FA plus 1 g/l BSA); EMSA: 0.25 M NaCl, 50 mM Tris pH 7.5, 10% glycerol, 25 C, 20 nM RNA, 2-200 nM Hfq. Conditions: protein: recombinant; tags: 6xHis-SUMO tag cleaved (SenP2); chain copies: 6; label: none (AUC, ITC); 5'-32P (EMSA).
Data set [6] concerns the target T1, Hfq72. The data set is described as follows: ITC; first of two events; ITC/FA: 0.25 M NaCl, 20 mM Hepes/NaOH pH 8.0, 5 mM MgCl2, 2% glycerol, 25 C (FA plus 1 g/l BSA); EMSA: 0.25 M NaCl, 50 mM Tris pH 7.5, 10% glycerol, 25 C, 20 nM RNA, 2-200 nM Hfq. Particulars: protein: recombinant; tags: 6xHis-SUMO tag cleaved (SenP2); chain copies: 6; label: none (AUC, ITC); 5'-32P (EMSA).

Data set [7] concerns the target T2, Hfq102. The data set is described as follows: AUC; s = 4.5S alone; with fhlA segment ternary s = 5.9S; ITC/FA: 0.25 M NaCl, 20 mM Hepes/NaOH pH 8.0, 5 mM MgCl2, 2% glycerol, 25 C (FA plus 1 g/l BSA); EMSA: 0.25 M NaCl, 50 mM Tris pH 7.5, 10% glycerol, 25 C, 20 nM RNA, 2-200 nM Hfq. Particulars: protein: recombinant; tags: 6xHis-SUMO tag cleaved (SenP2); chain copies: 6; label: 3' Cy5 or Cy3.

Regarding AAAAAAAAAAAAAAAAAA (ssRNA) [A18 (ordered part of A30)], the binding result in data set [1] was “binds”. As to CUAAUAAAAUUCUACCUAGAAGAACAAAAUGUC (ssRNA) [fhlA (ARN)X segment], the binding result in data set [2] is “binds”. In general, Kd refers to a measure of binding affinity in units of concentration. Take AAAAAAAAAAAAAAAAAAAA (ssRNA) [A20-ATTO488]: the dissociation constant (Kd) in data set [3] is 0.4 nM. For AAGAAGAAGAAGAAGAAGAA (ssRNA) [AAG], the binding result in data set [4] is “binds”. As for AAAAAAAAAAAAAAAAAAAA (ssRNA) [A20], in data set [5], the binding result is “binds”. In addition, the Kd in data set [6] was 1.3 nM. As to UCAACUCGAAUAACUAAAGCCAACGUGAAC (ssRNA) [OxyS (ARN)X segment], the binding result in data set [7] is “binds”.
